Data on 18 molecules can be found in patent US20250163145A1 (SHIONOGI, published 2025).

For experiment [1], the target named is T1, epitope peptide Cys-CE3C long (also: biotin label, site not given here).
T1 peptide: CSVNVDKQPKYEYSL
Briefly: competitive ELISA, unlabeled vs biotin-labeled peptide, antibody on anti-human IgG plate. Here is the method:
(§1) A diluted solution of the obtained recombinant humanized antibody, a biotin-labeled immunogen peptide, and Streptavidin-HRP (manufactured by PIERCE) were added to an anti-human IgG antibody-immobilized plate, and reacted overnight at 4° C. […] Next, a recombinant human antibody at the dilution rate, a biotin-labeled immunogen peptide, and Streptavidin-HRP (manufactured by PIERCE) were added. At the same time, a dilution series of unlabeled immunogenic peptide was added and reacted overnight at 4° C. After washing twice with ELISA wash buffer, TMB-Substrate Chromogen (manufactured by Thermo Fisher Scientific) was added to develop color, the reaction was stopped with an equal amount of 0.5N sulfuric acid, and the absorbance at 450 nm was measured. The concentration of the unlabeled peptide which attenuated the signal of the biotin-labeled peptide by half was defined as the affinity (IC50).
A mutant having the heavy chain variable region represented by IGHV7-4-1 Q43R, G44S, N58L, N100D, T100aD, R94P (SEQ ID NO: 33) and the light chain variable region represented by IGKV4-1 (SEQ ID NO: 18) produced in Example 3 was produced. New mutants (h15H11-55 to 67) were produced in which various mutations were introduced into the light chain human framework sequence of the produced mutants, and affinity evaluation was performed on the produced mutants by the method described in Example 5.
For orientation: In an ELISA, binding on a coated surface is turned into a signal by an enzyme label.

Experiment [2] has as its target T1, epitope peptide Cys-CE3C long. Briefly: competitive ELISA (Example 5). Here is the method: as §1
Experiment [3] shares this target. Put plainly: competitive ELISA, unlabeled vs biotin-labeled peptide, antibody on anti-human IgG plate. Here is the method:
as §1
Mutants (h15H11-44 to 54) in which various mutations were introduced into the light chain human framework sequence of h15H11-2 (heavy chain variable region: IGHV7-4-1 Q43R, G44S, N58L, N100D, T100aD, R94P (SEQ ID NO: 33)/light chain variable region: IGKV7-3 E27D, M33L, Y36F, V78M (SEQ ID NO: 55)) produced in Example 7 were produced. Affinity evaluation was performed on the produced mutants by the method described in Example 5.

Like-named read-outs stand apart in the source and are kept apart here. Where no end group is shown, it is not given here.

B1: h15H11-66 (antibody, human IgG4 S228P, kappa)
heavy: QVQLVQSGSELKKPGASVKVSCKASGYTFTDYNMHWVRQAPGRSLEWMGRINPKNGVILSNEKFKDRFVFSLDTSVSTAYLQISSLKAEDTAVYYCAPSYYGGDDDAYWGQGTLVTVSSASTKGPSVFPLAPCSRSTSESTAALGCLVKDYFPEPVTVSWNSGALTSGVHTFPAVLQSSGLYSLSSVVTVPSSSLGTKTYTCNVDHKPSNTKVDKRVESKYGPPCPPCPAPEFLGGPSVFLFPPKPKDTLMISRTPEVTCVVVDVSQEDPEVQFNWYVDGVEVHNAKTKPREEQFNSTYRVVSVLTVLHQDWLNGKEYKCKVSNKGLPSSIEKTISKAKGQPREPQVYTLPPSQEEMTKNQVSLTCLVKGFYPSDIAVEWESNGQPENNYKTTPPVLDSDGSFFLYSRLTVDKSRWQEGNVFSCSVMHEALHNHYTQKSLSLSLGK
light: DIVLTQSPASLAVSLGERATINCRASDSVDNYGISFLNWFQQKPGQPPKLLIYAASSQGSGVPARFSGSGSGTDFTLTISSMQAEDVAVYYCQQSKEFPWTFGGGTKVEIKRTVAAPSVFIFPPSDEQLKSGTASVVCLLNNFYPREAKVQWKVDNALQSGNSQESVTEQDSKDSTYSLSSTLTLSKADYEKHKVYACEVTHQGLSSPVTKSFNRGEC
notes: hIgG4Pro/hIgK
Take B1: the IC50 (in general, the concentration needed to halve the response being measured) in experiment [1] amounted to 530 pM.

B2: h15H11-67 (antibody, human IgG4 S228P, kappa)
heavy: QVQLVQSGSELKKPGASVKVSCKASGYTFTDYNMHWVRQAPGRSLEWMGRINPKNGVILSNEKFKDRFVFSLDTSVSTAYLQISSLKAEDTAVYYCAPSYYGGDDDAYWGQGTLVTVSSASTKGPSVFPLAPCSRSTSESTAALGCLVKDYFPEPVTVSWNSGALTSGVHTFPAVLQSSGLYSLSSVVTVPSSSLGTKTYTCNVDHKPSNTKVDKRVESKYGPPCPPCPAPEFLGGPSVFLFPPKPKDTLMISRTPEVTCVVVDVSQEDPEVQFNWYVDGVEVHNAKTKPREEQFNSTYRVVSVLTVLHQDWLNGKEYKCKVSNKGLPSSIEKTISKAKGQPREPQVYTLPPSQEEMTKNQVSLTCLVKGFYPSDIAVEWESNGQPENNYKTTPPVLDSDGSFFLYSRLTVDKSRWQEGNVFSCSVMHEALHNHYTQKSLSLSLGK
light: DIVLTQSPASLAVSLGQRATINCRASDSVDNYGISFLNWFQQKPGQPPKLLIYAASSQGSGVPARFSGSGSGTDFTLTISSMQAEDVAVYYCQQSKEFPWTFGGGTKVEIKRTVAAPSVFIFPPSDEQLKSGTASVVCLLNNFYPREAKVQWKVDNALQSGNSQESVTEQDSKDSTYSLSSTLTLSKADYEKHKVYACEVTHQGLSSPVTKSFNRGEC
notes: hIgG4Pro/hIgK
The molecule B2 returned an IC50 in experiment [1] of 460 pM.

B3: h15H11 heavy chain CDR mutant A101V (antibody, human IgG4 S228P, kappa, name in Kabat numbering, V domains shown)
VH: QVQLVQSGSELKKPGASVKVSCKASGYTFTDYNMHWVRQAPGRSLEWMGRINPKNGVINSNEKFKDRFVFSLDTSVSTAYLQISSLKAEDTAVYYCAPSYYGGNTDVYWGQGTLVTVSS
VL: DIVLTQSPASLAVSPGQRATITCRASESVDNYGISFMNWFQQKPGQPPKLLIYAASSQGSGVPARFSGSGSGTDFTLTINPMEANDTANYYCQQSKEFPWTFGGGTKVEIKR
notes: hIgG4Pro/hIgK
Take B3: the binding result in experiment [2] is “no binding (tested: below the detection limit)”.

B4: h15H11-65 (antibody, human IgG4 S228P, kappa, V domains shown)
VH: QVQLVQSGSELKKPGASVKVSCKASGYTFTDYNMHWVRQAPGRSLEWMGRINPKNGVILSNEKFKDRFVFSLDTSVSTAYLQISSLKAEDTAVYYCAPSYYGGDDDAYWGQGTLVTVSS
VL: DIVMTQSPDSLAVSLGERATINCRASDSVDNYGISFLNWFQQKPGQPPKLLIYAASSQGSGVPARFSGSGSGTDFTLTISSMQAEDVAMYYCQQSKEFPWTFGGGTKVEIKR
notes: hIgG4Pro/hIgK
In experiment [1], B4 yielded an IC50 of 750 pM.

B5: h15H11-45 (antibody, human IgG4 S228P, kappa, V domains shown)
VH: QVQLVQSGSELKKPGASVKVSCKASGYTFTDYNMHWVRQAPGRSLEWMGRINPKNGVILSNEKFKDRFVFSLDTSVSTAYLQISSLKAEDTAVYYCAPSYYGGDDDAYWGQGTLVTVSS
VL: DIVLTQSPASLAVSPGQRATITCRASDSVDNYGISFLNWFQQKPGQPPKLLIYAASSQGSGVPARFSGSGSGTDFTLTINPMEAADTANYYCQQSKEFPWTFGGGTKVEIKR
notes: hIgG4Pro/hIgK
For B5, the IC50 in experiment [3] is 500 pM. This counts as sub-nanomolar.

B6: h15H11-46 (antibody, human IgG4 S228P, kappa, V domains shown)
VH: QVQLVQSGSELKKPGASVKVSCKASGYTFTDYNMHWVRQAPGRSLEWMGRINPKNGVILSNEKFKDRFVFSLDTSVSTAYLQISSLKAEDTAVYYCAPSYYGGDDDAYWGQGTLVTVSS
VL: DIVLTQSPASLAVSPGQRATITCRASDSVDNYGISFLNWFQQKPGQPPKLLIYAASSQGSGVPARFSGSGSGTDFTLTINPMEAQDTANYYCQQSKEFPWTFGGGTKVEIKR
notes: hIgG4Pro/hIgK
B6 registered an IC50 in experiment [3] of 500 pM. This lies in the sub-nanomolar range.

B7: h15H11 heavy chain CDR mutant M34L (antibody, human IgG4 S228P, kappa, name in Kabat numbering, V domains shown)
VH: QVQLVQSGSELKKPGASVKVSCKASGYTFTDYNLHWVRQAPGRSLEWMGRINPKNGVINSNEKFKDRFVFSLDTSVSTAYLQISSLKAEDTAVYYCAPSYYGGNTDAYWGQGTLVTVSS
VL: DIVLTQSPASLAVSPGQRATITCRASESVDNYGISFMNWFQQKPGQPPKLLIYAASSQGSGVPARFSGSGSGTDFTLTINPMEANDTANYYCQQSKEFPWTFGGGTKVEIKR
notes: hIgG4Pro/hIgK
Turning to B7, in experiment [2], the binding result is reported as “no binding (tested: below the detection limit)”.

B8: h15H11-53 (antibody, human IgG4 S228P, kappa, V domains shown)
VH: QVQLVQSGSELKKPGASVKVSCKASGYTFTDYNMHWVRQAPGRSLEWMGRINPKNGVILSNEKFKDRFVFSLDTSVSTAYLQISSLKAEDTAVYYCAPSYYGGDDDAYWGQGTLVTVSS
VL: DIVLTQSPASLAVSPGQRATITCRASDSVDNYGISFLNWFQQKPGQPPKLLIYAASSQGSGVPARFSGSGSGTDFTLTINPMEAGDTANYYCQQSKEFPWTFGGGTKVEIKR
notes: hIgG4Pro/hIgK
In turn, B8 showed an IC50 in experiment [3] of 550 pM.

B9: h15H11-50 (antibody, human IgG4 S228P, kappa, V domains shown)
VH: QVQLVQSGSELKKPGASVKVSCKASGYTFTDYNMHWVRQAPGRSLEWMGRINPKNGVILSNEKFKDRFVFSLDTSVSTAYLQISSLKAEDTAVYYCAPSYYGGDDDAYWGQGTLVTVSS
VL: DIVLTQSPASLAVSPGQRATITCRASDSVDNYGISFLNWFQQKPGQPPKLLIYAASSQGSGVPARFSGSGSGTDFTLTINPMEAIDTANYYCQQSKEFPWTFGGGTKVEIKR
notes: hIgG4Pro/hIgK
In the case of B9, the IC50 in experiment [3] was found to be 550 pM.

B10: h15H11-52 (antibody, human IgG4 S228P, kappa, V domains shown)
VH: QVQLVQSGSELKKPGASVKVSCKASGYTFTDYNMHWVRQAPGRSLEWMGRINPKNGVILSNEKFKDRFVFSLDTSVSTAYLQISSLKAEDTAVYYCAPSYYGGDDDAYWGQGTLVTVSS
VL: DIVLTQSPASLAVSPGQRATITCRASDSVDNYGISFLNWFQQKPGQPPKLLIYAASSQGSGVPARFSGSGSGTDFTLTINPMEARDTANYYCQQSKEFPWTFGGGTKVEIKR
notes: hIgG4Pro/hIgK
B10 registered an IC50 in experiment [3] of 500 pM.

B11: h15H11 light chain CDR mutant Q90N (antibody, human IgG4 S228P, kappa, name in Kabat numbering, V domains shown)
VH: QVQLVQSGSELKKPGASVKVSCKASGYTFTDYNMHWVRQAPGRSLEWMGRINPKNGVINSNEKFKDRFVFSLDTSVSTAYLQISSLKAEDTAVYYCAPSYYGGNTDAYWGQGTLVTVSS
VL: DIVLTQSPASLAVSPGQRATITCRASESVDNYGISFMNWFQQKPGQPPKLLIYAASSQGSGVPARFSGSGSGTDFTLTINPMEANDTANYYCQNSKEFPWTFGGGTKVEIKR
notes: hIgG4Pro/hIgK
Turning to B11, the binding result in experiment [2] is given as “no binding (tested: below the detection limit)”.

B12: h15H11-44 (antibody, human IgG4 S228P, kappa, V domains shown)
VH: QVQLVQSGSELKKPGASVKVSCKASGYTFTDYNMHWVRQAPGRSLEWMGRINPKNGVILSNEKFKDRFVFSLDTSVSTAYLQISSLKAEDTAVYYCAPSYYGGDDDAYWGQGTLVTVSS
VL: DIVLTQSPASLAVSPGQRATITCRASDSVDNYGISFLNWFQQKPGQPPKLLIYAASSQGSGVPARFSGSGSGTDFTLTINPMEAEDTANYYCQQSKEFPWTFGGGTKVEIKR
notes: hIgG4Pro/hIgK
B12: the IC50 in experiment [3] was 510 pM.

B13: h15H11 light chain CDR mutant P95G (antibody, human IgG4 S228P, kappa, name in Kabat numbering, V domains shown)
VH: QVQLVQSGSELKKPGASVKVSCKASGYTFTDYNMHWVRQAPGRSLEWMGRINPKNGVINSNEKFKDRFVFSLDTSVSTAYLQISSLKAEDTAVYYCAPSYYGGNTDAYWGQGTLVTVSS
VL: DIVLTQSPASLAVSPGQRATITCRASESVDNYGISFMNWFQQKPGQPPKLLIYAASSQGSGVPARFSGSGSGTDFTLTINPMEANDTANYYCQQSKEFGWTFGGGTKVEIKR
notes: hIgG4Pro/hIgK
As for B13, the binding result in experiment [2] was “no binding (tested: below the detection limit)”.

B14: h15H11-49 (antibody, human IgG4 S228P, kappa, V domains shown)
VH: QVQLVQSGSELKKPGASVKVSCKASGYTFTDYNMHWVRQAPGRSLEWMGRINPKNGVILSNEKFKDRFVFSLDTSVSTAYLQISSLKAEDTAVYYCAPSYYGGDDDAYWGQGTLVTVSS
VL: DIVLTQSPASLAVSPGQRATITCRASDSVDNYGISFLNWFQQKPGQPPKLLIYAASSQGSGVPARFSGSGSGTDFTLTINPMEAVDTANYYCQQSKEFPWTFGGGTKVEIKR
notes: hIgG4Pro/hIgK
In experiment [3], B14 had an IC50 of 620 pM.

B15: h15H11-47 (antibody, human IgG4 S228P, kappa, V domains shown)
VH: QVQLVQSGSELKKPGASVKVSCKASGYTFTDYNMHWVRQAPGRSLEWMGRINPKNGVILSNEKFKDRFVFSLDTSVSTAYLQISSLKAEDTAVYYCAPSYYGGDDDAYWGQGTLVTVSS
VL: DIVLTQSPASLAVSPGQRATITCRASDSVDNYGISFLNWFQQKPGQPPKLLIYAASSQGSGVPARFSGSGSGTDFTLTINPMEAFDTANYYCQQSKEFPWTFGGGTKVEIKR
notes: hIgG4Pro/hIgK
Take B15: the IC50 in experiment [3] amounted to 530 pM.

B16: h15H11-48 (antibody, human IgG4 S228P, kappa, V domains shown)
VH: QVQLVQSGSELKKPGASVKVSCKASGYTFTDYNMHWVRQAPGRSLEWMGRINPKNGVILSNEKFKDRFVFSLDTSVSTAYLQISSLKAEDTAVYYCAPSYYGGDDDAYWGQGTLVTVSS
VL: DIVLTQSPASLAVSPGQRATITCRASDSVDNYGISFLNWFQQKPGQPPKLLIYAASSQGSGVPARFSGSGSGTDFTLTINPMEALDTANYYCQQSKEFPWTFGGGTKVEIKR
notes: hIgG4Pro/hIgK
For B16, the IC50 in experiment [3] is 510 pM.

B17: h15H11-54 (antibody, human IgG4 S228P, kappa, V domains shown)
VH: QVQLVQSGSELKKPGASVKVSCKASGYTFTDYNMHWVRQAPGRSLEWMGRINPKNGVILSNEKFKDRFVFSLDTSVSTAYLQISSLKAEDTAVYYCAPSYYGGDDDAYWGQGTLVTVSS
VL: DIVLTQSPASLAVSPGQRATITCRASDSVDNYGISFLNWFQQKPGQPPKLLIYAASSQGSGVPARFSGSGSGTDFTLTINPMEANPTANYYCQQSKEFPWTFGGGTKVEIKR
notes: hIgG4Pro/hIgK
In turn, B17 returned an IC50 in experiment [3] of 720 pM.

B18: h15H11-51 (antibody, human IgG4 S228P, kappa, V domains shown)
VH: QVQLVQSGSELKKPGASVKVSCKASGYTFTDYNMHWVRQAPGRSLEWMGRINPKNGVILSNEKFKDRFVFSLDTSVSTAYLQISSLKAEDTAVYYCAPSYYGGDDDAYWGQGTLVTVSS
VL: DIVLTQSPASLAVSPGQRATITCRASDSVDNYGISFLNWFQQKPGQPPKLLIYAASSQGSGVPARFSGSGSGTDFTLTINPMEADDTANYYCQQSKEFPWTFGGGTKVEIKR
notes: hIgG4Pro/hIgK
For the molecule B18, the IC50 in experiment [3] is 630 pM.
